These are literature values, as cited in paper PMC4872106.

This series has as its target M.EcoKI (Escherichia coli) (UniProt P08957). Conditions: cited from earlier work.

Sequence of Ocr (P03775 whole entry): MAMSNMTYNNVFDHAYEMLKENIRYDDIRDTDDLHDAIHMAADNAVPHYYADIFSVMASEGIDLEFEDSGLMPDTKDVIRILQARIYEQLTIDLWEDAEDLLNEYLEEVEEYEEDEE
Sequence of M.EcoKI (Escherichia coli) (P08957 whole entry, chain 1 of 2): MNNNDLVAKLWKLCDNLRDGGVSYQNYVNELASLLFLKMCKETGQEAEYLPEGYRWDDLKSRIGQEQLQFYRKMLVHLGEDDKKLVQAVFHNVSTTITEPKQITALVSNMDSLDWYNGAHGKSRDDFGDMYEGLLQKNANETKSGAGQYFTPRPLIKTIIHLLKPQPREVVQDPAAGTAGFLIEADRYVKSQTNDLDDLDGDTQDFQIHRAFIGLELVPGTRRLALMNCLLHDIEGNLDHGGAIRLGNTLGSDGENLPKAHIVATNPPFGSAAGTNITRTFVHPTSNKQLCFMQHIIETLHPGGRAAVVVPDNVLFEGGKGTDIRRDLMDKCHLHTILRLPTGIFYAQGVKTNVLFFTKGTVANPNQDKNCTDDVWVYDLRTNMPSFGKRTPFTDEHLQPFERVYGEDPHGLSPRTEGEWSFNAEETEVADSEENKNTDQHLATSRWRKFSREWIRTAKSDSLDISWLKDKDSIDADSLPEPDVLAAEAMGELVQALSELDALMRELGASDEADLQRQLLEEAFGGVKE
Sequence of M.EcoKI (Escherichia coli) (P05719 2-464, chain 2 of 2, further chain): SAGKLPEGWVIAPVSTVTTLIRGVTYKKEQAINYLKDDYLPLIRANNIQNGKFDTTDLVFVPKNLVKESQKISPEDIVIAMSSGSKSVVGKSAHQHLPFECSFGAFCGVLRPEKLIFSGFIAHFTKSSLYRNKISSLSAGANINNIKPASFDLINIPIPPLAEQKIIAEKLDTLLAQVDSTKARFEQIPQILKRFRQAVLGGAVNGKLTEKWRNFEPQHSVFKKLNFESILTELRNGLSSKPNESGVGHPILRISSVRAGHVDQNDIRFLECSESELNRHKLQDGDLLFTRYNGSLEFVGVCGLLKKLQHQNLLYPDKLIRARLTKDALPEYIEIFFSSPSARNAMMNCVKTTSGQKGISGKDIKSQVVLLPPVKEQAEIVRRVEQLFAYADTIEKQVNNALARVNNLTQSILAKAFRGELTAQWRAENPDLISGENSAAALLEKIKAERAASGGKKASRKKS

For Ocr (from UniProt P03775), the Kd is 0.05 nM.
